Results as given in article doi:10.1101/2020.07.11.198572.

How the values were obtained:
[1] = molecular target: EGFR-GFP (GFP-labelled epidermal growth factor receptor) in SW620-EGFR-GFP cells (human) (UniProt P00533)
[2] = molecular target: EGFR-GFP (GFP-labelled epidermal growth factor receptor) in SW620-EGFR-GFP cells (human) (UniProt P00533); remark: listed apart in the source

percent of EGFR foci colocalized with EGF (3-60 min) [1]: 40%
percent of all tracked EGFR molecules in foci colocalized with EGF [1]: 64%
mean relative stoichiometry EGFR:EGF [2]: 4.2 EGFR:EGF
stoichiometry N [2]: 1.9 EGFR:EGF
Substance: EGF-TMR (epidermal growth factor conjugated to tetramethylrhodamine) (ligand)
